Test results taken from article PMC10079538, “Unusual PDGFRB fusion reveals novel mechanism of kinase activation in Ph-like B-ALL” (Leukemia, 2023).

Molecular target: the molecule itself
Assay: SEC; elution of the recombinant protein purified from insect cells; molecular weight from the elution

B1: recombinant truncated PDGFRB (PDGFRB^584-1106) (domain or fragment, human, UniProt P09619 584-1106, looked up)
chain: PMQLPYDSTWELPRDQLVLGRTLGSGAFGQVVEATAHGLSHSQATMKVAVKMLKSTARSSEKQALMSELKIMSHLGPHLNVVNLLGACTKGGPIYIITEYCRYGDLVDYLHRNKHTFLQHHSDKRRPPSAELYSNALPVGLPLPSHVSLTGESDGGYMDMSKDESVDYVPMLDMKGDVKYADIESSNYMAPYDNYVPSAPERTCRATLINESPVLSYMDLVGFSYQVANGMEFLASKNCVHRDLAARNVLICEGKLVKICDFGLARDIMRDSNYISKGSTFLPLKWMAPESIFNSLYTTLSDVWSFGILLWEIFTLGGTPYPELPMNEQFYNAIKRGYRMAQPAHASDEIYEIMQKCWEEKFEIRPPFSQLVLLLERLLGEGYKKKYQQVDEEFLRSDHPAILRSQARLPGFHGLRSPLDTSSVLYTAVQPNEGDNDYIIPLPDPKPEVADEGPLEGSPSLASSTLNEVNTSSTISCDSPLEPQDEPEPEPQLELQVEPEPELEQLPDSGCPAPRAEAEDSFL
notes: PDGFRB, human, residues 584-1106; truncated form encoded by the CD74^intr::PDGFRB fusion, lacks the juxtamembrane region; methods are in the supplementary file; also called truncated PDGFRB^584-1106; source: insect cells, expressed and purified
For B1, the “stoichiometry N” value was 2.
